The record followed here is publication PMC4182348 (PLoS ONE, 2014).

Assay [1] has as its target tetanus toxin fragment C of the heavy chain. Kind of assay: ELISA. To be noted: one partner purified. A general note: ELISA stands for enzyme-linked immunosorbent assay.
Assay [2] deals with T1, tetanus toxin light chain (Clostridium tetani, strain  …, UniProt P04958).
T1 construct: source: bought: List Biological Laboratories
The experiment in a line: ELISA. Conditions: one partner purified.

T1 sequence (P04958 1-457): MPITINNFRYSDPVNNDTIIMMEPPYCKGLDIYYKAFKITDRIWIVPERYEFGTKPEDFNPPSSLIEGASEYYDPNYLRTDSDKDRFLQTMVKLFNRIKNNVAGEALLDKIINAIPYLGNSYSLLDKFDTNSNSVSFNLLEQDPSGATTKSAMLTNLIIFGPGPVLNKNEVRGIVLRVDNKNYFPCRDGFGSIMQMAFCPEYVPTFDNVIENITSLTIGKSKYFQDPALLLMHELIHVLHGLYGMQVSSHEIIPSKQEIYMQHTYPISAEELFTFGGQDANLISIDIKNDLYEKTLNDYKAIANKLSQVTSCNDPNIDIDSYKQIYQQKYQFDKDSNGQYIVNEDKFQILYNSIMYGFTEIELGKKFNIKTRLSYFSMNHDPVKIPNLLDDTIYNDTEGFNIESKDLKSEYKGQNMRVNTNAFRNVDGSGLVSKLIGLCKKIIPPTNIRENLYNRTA
Sequence of tetanus toxin fragment C of the heavy chain (P04958 865-1315 limits assumed): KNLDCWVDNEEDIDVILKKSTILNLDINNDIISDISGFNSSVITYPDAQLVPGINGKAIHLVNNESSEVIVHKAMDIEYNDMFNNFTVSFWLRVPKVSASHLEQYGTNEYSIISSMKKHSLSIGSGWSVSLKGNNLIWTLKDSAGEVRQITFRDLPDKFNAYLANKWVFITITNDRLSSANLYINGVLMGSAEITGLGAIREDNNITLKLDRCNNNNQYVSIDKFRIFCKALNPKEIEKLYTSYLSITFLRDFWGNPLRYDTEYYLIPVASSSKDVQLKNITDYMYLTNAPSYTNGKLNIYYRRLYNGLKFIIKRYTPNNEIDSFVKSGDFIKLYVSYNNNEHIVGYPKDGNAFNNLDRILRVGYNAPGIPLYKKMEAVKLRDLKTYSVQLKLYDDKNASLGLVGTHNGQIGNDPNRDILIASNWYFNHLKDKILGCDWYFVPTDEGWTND

B1: anti-TT mAb of hybridoma 14 (antibody, V domains shown)
VH: VQLQESGPGLVAPSQSLSITCTVSGFSLTSYGVHWVRQPPGKGLEWLGVIWPGGSTNYNSALMSRLSISQDNSKSQVFLKMNSLQIDDTAMYHCARDFQYGNYFDYWGQGTSLTVSS
VL: MPASPGEKITITCSASSSISSNYLHWYQQKPGFSPKLLIYRTSNLASGVPARFSGSGSGTSYSLTVGTMEAEDVATYYCQQGTSIPTFGAGTKLELK
Regarding B1, the binding result in assay [1] and in assay [2] was “no binding” in each case.

B2: anti-TT mAb of hybridoma 24 (antibody, V domains shown)
VH: VQLQQTGPGLVQPSQSLSITCTVSAFSLTNYGIHWVRQSPGKGLEWLGVIWTGGSTDYNAPFISRLSISKDNSKSQVFFKMNSLQANDTAIYYCVRDGYRVMDYWGQGTSVTVSS
VL: LSASVGETVTITCRASGNIHNYLAWYQQKQGKSPQLLVYNAKTLTDGVPSRFSGSGSGTQHSLKINSLQPEDFGSYYCQHFWTIPWTFGGGTKLEIK
In the case of B2, the binding result in assay [1] is reported as “binds”; in assay [2], “no binding”.
